± gives the standard deviation of the averaged measurements.
Each sequence was assayed on Saccharomyces cerevisiae (assay: protein stability index of tFT-peptide fusion (C-terminal peptide) (PSI (0-1 scale)); higher = more stable (slower turnover)). Conditions: genetic background: cdc34-1; temperature: 37 C.
Description: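 MPS profiling in S. cerevisiae of the tFT-X12 degron library: putative degron peptides plus stable controls, 12 aa, fused to the C-terminus of a sfGFP-mCherry timer. Cells are FACS-sorted into 8 mCherry/sfGFP bins and deep-sequenced. PSI runs from 0 (unstable) to 1 (stable). Backgrounds are wild type, das1Δ and doa10Δ at 30 °C, and wild type, das1Δ, cdc34-1 and cdc53-1 at 37 °C; 2-3 technical replicates each.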
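Further: PSI is a weighted mean of sequencing reads over stability bins, variants kept only with over 10 reads, mCherry proximal and sfGFP distal, peptide attached via GGGS linker.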

Sequence	protein stability index
RLILAIVVSGGL	0.4098 ± 0.0018
RLVGVRWEVCNL	0.91 ± 0.041
RNNLHKKIRRGY	0.681 ± 0.046
RRLRPQTVAFLS	0.593 ± 0.012
RRVLVVPCIWHM	0.653 ± 0.031
RSGWWQWGRPGT	0.698 ± 0.031
RSIAFLLGQFLS	0.6679 ± 0.0052
RSKLGVLVILWF	0.288 ± 0.02
RSYAYIIVATVA	0.153 ± 0.021
RTALSSPRPALL	0.6896 ± 0.0052
RTFPYSALSFVS	0.618 ± 0.032
RVFRRFCCVISM	0.312 ± 0.034
RVFVGLVDFLFW	0.437 ± 0.033
RVVITYLVLSNR	0.648 ± 0.06
RWALPALWAYAA	0.493 ± 0.029
RWGLFIGIVIGF	0.146 ± 0.0085
RYQDLSDWRRIS	0.412 ± 0.02
RYTWHGICIVTR	0.43107 ± 0.00014
SCCLLICIFFIF	0.317 ± 0.045
SCLSYRTRLLAF	0.52 ± 0.045

Sequence	protein stability index
SCRCIIFVCCFW	0.256 ± 0.0043
SFFVCAGFWVLC	0.419 ± 0.0091
SFLCGCVVCWLW	0.464 ± 0.063
SFLVRFVYFFAL	0.54 ± 0.043
SFQLVFLCVLIW	0.136 ± 0.0088
SFTPPRVCLCFS	0.465 ± 0.04
SFVCFFLNLFVY	0.0549 ± 0.013
SGCWGRRLWFFN	0.668 ± 0.04
SIFWWWLVFILG	0.469 ± 0.0093
SIIRHLFHPSST	0.67 ± 0.026
SIPFWPVLFFLL	0.353 ± 0.021
SIRIIVVVRGAS	0.528 ± 0.048
SLCSRLVVVAWF	0.531 ± 0.017
SLRKRILCRFEY	0.6572 ± 0.0064
SLSIFCLMLMLF	0.564 ± 0.04
SPPSFPPLLLLS	0.668 ± 0.043
SPSFLVIFTMLL	0.528 ± 0.023
SPSSLPRPLFLS	0.592 ± 0.015
SPVPITVAVGCR	0.473 ± 0.0085
SQSNQSIIRKNV	0.7 ± 0.043

Sequence	protein stability index
SSCLPAPPPLPL	0.6491 ± 0.003
SSFFFLFCFFPS	0.575 ± 0.13
SSFPGPPLPPDP	0.704 ± 0.024
SSVFRLKGLMFL	0.622 ± 0.062
SSVLLMFFCFVC	0.256 ± 0.02
SSVLWVMFVFFY	0.313 ± 0.026
SVFGLLSVCFFY	0.488 ± 0.032
SVKRVVPCLVSC	0.442 ± 0.0081
SVLSFGVFCLVG	0.553 ± 0.043
SVPRTRAPRLIS	0.646 ± 0.027
SVVFFYPPIFHA	0.636 ± 0.057
SVVYSVWIYLLH	0.352 ± 0.018
TEVGAWLLLCRC	0.271 ± 0.051
TFLVWSLMAGDR	0.449 ± 0.033
TFRVLAFFCRVV	0.453 ± 0.0089
TKGIIKKINIIM	0.624 ± 0.14
TLCCLVCSQGVV	0.478 ± 0.051
TLFSPPVLATPS	0.624 ± 0.042
TLLSSIFLCLVL	0.575 ± 0.018
TRHIGQYIHKIT	0.641 ± 0.048

Same assay, conditions: genetic background: cdc53-1; temperature: 37 C

Sequence	protein stability index
RLILAIVVSGGL	0.425 ± 0.033
RLVGVRWEVCNL	0.902 ± 0.024
RNNLHKKIRRGY	0.752 ± 0.0082
RRLRPQTVAFLS	0.717 ± 0.03
RRVLVVPCIWHM	0.73 ± 0.011
RSGWWQWGRPGT	0.7525 ± 0.0031
RSIAFLLGQFLS	0.745 ± 0.016
RSKLGVLVILWF	0.391 ± 0.011
RSYAYIIVATVA	0.197 ± 0.0038
RTALSSPRPALL	0.7635 ± 0.0053
RTFPYSALSFVS	0.712 ± 0.013
RVFRRFCCVISM	0.342 ± 0.018
RVFVGLVDFLFW	0.553 ± 0.073
RVVITYLVLSNR	0.686 ± 0.013
RWALPALWAYAA	0.715 ± 0.034
RWGLFIGIVIGF	0.211 ± 0.003
RYQDLSDWRRIS	0.6574 ± 0.0031
RYTWHGICIVTR	0.456 ± 0.013
SCCLLICIFFIF	0.408 ± 0.065
SCLSYRTRLLAF	0.617 ± 0.011

Sequence	protein stability index
SCRCIIFVCCFW	0.404 ± 0.032
SFFVCAGFWVLC	0.511 ± 0.081
SFLCGCVVCWLW	0.547 ± 0.039
SFLVRFVYFFAL	0.619 ± 0.025
SFQLVFLCVLIW	0.129 ± 0.008
SFTPPRVCLCFS	0.503 ± 0.008
SFVCFFLNLFVY	0.138 ± 0.013
SGCWGRRLWFFN	0.791 ± 0.018
SIFWWWLVFILG	0.4759 ± 0.0034
SIIRHLFHPSST	0.7184 ± 0.0046
SIPFWPVLFFLL	0.475 ± 0.014
SIRIIVVVRGAS	0.628 ± 0.056
SLCSRLVVVAWF	0.599 ± 0.026
SLRKRILCRFEY	0.708 ± 0.011
SLSIFCLMLMLF	0.601 ± 0.029
SPPSFPPLLLLS	0.7368 ± 0.00078
SPSFLVIFTMLL	0.577 ± 0.01
SPSSLPRPLFLS	0.726 ± 0.017
SPVPITVAVGCR	0.491 ± 0.012
SQSNQSIIRKNV	0.713 ± 0.0077

Sequence	protein stability index
SSCLPAPPPLPL	0.747 ± 0.025
SSFFFLFCFFPS	0.619 ± 0.027
SSFPGPPLPPDP	0.74 ± 0.013
SSVFRLKGLMFL	0.721 ± 0.042
SSVLLMFFCFVC	0.388 ± 0.015
SSVLWVMFVFFY	0.387 ± 0.0063
SVFGLLSVCFFY	0.5669 ± 0.002
SVKRVVPCLVSC	0.468 ± 0.0077
SVLSFGVFCLVG	0.65407 ± 0.00051
SVPRTRAPRLIS	0.73 ± 0.034
SVVFFYPPIFHA	0.7392 ± 0.006
SVVYSVWIYLLH	0.4407 ± 0.0016
TEVGAWLLLCRC	0.307 ± 0.01
TFLVWSLMAGDR	0.5276 ± 0.00077
TFRVLAFFCRVV	0.538 ± 0.015
TKGIIKKINIIM	0.73 ± 0.039
TLCCLVCSQGVV	0.598 ± 0.013
TLFSPPVLATPS	0.6754 ± 0.0047
TLLSSIFLCLVL	0.6448 ± 0.0023
TRHIGQYIHKIT	0.734 ± 0.027

Same assay, conditions: genetic background: das1 deletion; temperature: 30 C

Sequence	protein stability index
RLILAIVVSGGL	0.295 ± 0.034
RLVGVRWEVCNL	0.78 ± 0.041
RNNLHKKIRRGY	0.661 ± 0.043
RRLRPQTVAFLS	0.676 ± 0.021
RRVLVVPCIWHM	0.604 ± 0.015
RSGWWQWGRPGT	0.661 ± 0.033
RSIAFLLGQFLS	0.68 ± 0.027
RSKLGVLVILWF	0.293 ± 0.031
RSYAYIIVATVA	0.182 ± 0.026
RTALSSPRPALL	0.701 ± 0.017
RTFPYSALSFVS	0.652 ± 0.046
RVFRRFCCVISM	0.342 ± 0.029
RVFVGLVDFLFW	0.402 ± 0.025
RVVITYLVLSNR	0.509 ± 0.018
RWALPALWAYAA	0.583 ± 0.025
RWGLFIGIVIGF	0.219 ± 0.037
RYQDLSDWRRIS	0.629 ± 0.0036
RYTWHGICIVTR	0.312 ± 0.027
SCCLLICIFFIF	0.306 ± 0.015
SCLSYRTRLLAF	0.477 ± 0.019

Sequence	protein stability index
SCRCIIFVCCFW	0.262 ± 0.025
SFFVCAGFWVLC	0.347 ± 0.025
SFLCGCVVCWLW	0.397 ± 0.026
SFLVRFVYFFAL	0.549 ± 0.021
SFQLVFLCVLIW	0.155 ± 0.024
SFTPPRVCLCFS	0.319 ± 0.029
SFVCFFLNLFVY	0.172 ± 0.032
SGCWGRRLWFFN	0.66 ± 0.037
SIFWWWLVFILG	0.362 ± 0.02
SIIRHLFHPSST	0.643 ± 0.0091
SIPFWPVLFFLL	0.494 ± 0.018
SIRIIVVVRGAS	0.433 ± 0.023
SLCSRLVVVAWF	0.432 ± 0.026
SLRKRILCRFEY	0.655 ± 0.012
SLSIFCLMLMLF	0.467 ± 0.016
SPPSFPPLLLLS	0.608 ± 0.015
SPSFLVIFTMLL	0.433 ± 0.034
SPSSLPRPLFLS	0.616 ± 0.015
SPVPITVAVGCR	0.352 ± 0.034
SQSNQSIIRKNV	0.63 ± 0.013

Sequence	protein stability index
SSCLPAPPPLPL	0.682 ± 0.042
SSFFFLFCFFPS	0.48 ± 0.062
SSFPGPPLPPDP	0.652 ± 0.024
SSVFRLKGLMFL	0.65 ± 0.047
SSVLLMFFCFVC	0.318 ± 0.014
SSVLWVMFVFFY	0.309 ± 0.058
SVFGLLSVCFFY	0.385 ± 0.029
SVKRVVPCLVSC	0.332 ± 0.035
SVLSFGVFCLVG	0.524 ± 0.023
SVPRTRAPRLIS	0.658 ± 0.025
SVVFFYPPIFHA	0.678 ± 0.053
SVVYSVWIYLLH	0.292 ± 0.022
TEVGAWLLLCRC	0.268 ± 0.034
TFLVWSLMAGDR	0.447 ± 0.023
TFRVLAFFCRVV	0.47 ± 0.03
TKGIIKKINIIM	0.617 ± 0.016
TLCCLVCSQGVV	0.471 ± 0.027
TLFSPPVLATPS	0.528 ± 0.026
TLLSSIFLCLVL	0.477 ± 0.031
TRHIGQYIHKIT	0.635 ± 0.027

Same assay, conditions: genetic background: das1 deletion; temperature: 37 C

Sequence	protein stability index
RLILAIVVSGGL	0.495 ± 0.0071
RLVGVRWEVCNL	0.86371 ± 0.00039
RNNLHKKIRRGY	0.745 ± 0.033
RRLRPQTVAFLS	0.704 ± 0.028
RRVLVVPCIWHM	0.673 ± 0.048
RSGWWQWGRPGT	0.7712 ± 0.0041
RSIAFLLGQFLS	0.74305 ± 0.00053
RSKLGVLVILWF	0.466 ± 0.012
RSYAYIIVATVA	0.284 ± 0.014
RTALSSPRPALL	0.75 ± 0.0094
RTFPYSALSFVS	0.718 ± 0.015
RVFRRFCCVISM	0.49 ± 0.045
RVFVGLVDFLFW	0.6062 ± 0.0026
RVVITYLVLSNR	0.646 ± 0.011
RWALPALWAYAA	0.7029 ± 0.007
RWGLFIGIVIGF	0.338 ± 0.0087
RYQDLSDWRRIS	0.753 ± 0.028
RYTWHGICIVTR	0.4805 ± 0.0035
SCCLLICIFFIF	0.391 ± 0.064
SCLSYRTRLLAF	0.587 ± 0.0083

Sequence	protein stability index
SCRCIIFVCCFW	0.465 ± 0.057
SFFVCAGFWVLC	0.539 ± 0.049
SFLCGCVVCWLW	0.552 ± 0.011
SFLVRFVYFFAL	0.6696 ± 0.0039
SFQLVFLCVLIW	0.237 ± 0.0049
SFTPPRVCLCFS	0.5205 ± 0.0047
SFVCFFLNLFVY	0.272 ± 0.017
SGCWGRRLWFFN	0.7567 ± 0.0052
SIFWWWLVFILG	0.502 ± 0.008
SIIRHLFHPSST	0.72688 ± 9e-05
SIPFWPVLFFLL	0.6088 ± 0.0044
SIRIIVVVRGAS	0.61 ± 0.071
SLCSRLVVVAWF	0.608 ± 0.014
SLRKRILCRFEY	0.7348 ± 0.0056
SLSIFCLMLMLF	0.565 ± 0.025
SPPSFPPLLLLS	0.7386 ± 0.0036
SPSFLVIFTMLL	0.6018 ± 0.0041
SPSSLPRPLFLS	0.7356 ± 0.0018
SPVPITVAVGCR	0.5444 ± 0.0028
SQSNQSIIRKNV	0.737 ± 0.016

Sequence	protein stability index
SSCLPAPPPLPL	0.698 ± 0.0084
SSFFFLFCFFPS	0.646 ± 0.055
SSFPGPPLPPDP	0.731 ± 0.022
SSVFRLKGLMFL	0.7146 ± 0.0016
SSVLLMFFCFVC	0.476 ± 0.025
SSVLWVMFVFFY	0.442 ± 0.0026
SVFGLLSVCFFY	0.604 ± 0.0077
SVKRVVPCLVSC	0.525 ± 0.0063
SVLSFGVFCLVG	0.61 ± 0.0077
SVPRTRAPRLIS	0.71911 ± 0.00014
SVVFFYPPIFHA	0.713 ± 0.016
SVVYSVWIYLLH	0.484 ± 0.026
TEVGAWLLLCRC	0.403 ± 0.02
TFLVWSLMAGDR	0.4667 ± 0.0043
TFRVLAFFCRVV	0.616 ± 0.059
TKGIIKKINIIM	0.724 ± 0.0084
TLCCLVCSQGVV	0.5217 ± 0.0031
TLFSPPVLATPS	0.676 ± 0.0092
TLLSSIFLCLVL	0.6128 ± 0.0011
TRHIGQYIHKIT	0.694 ± 0.037
